Measurements reported in PMC2607554, “In-Vitro Helix Opening of M. tuberculosis oriC by DnaA Occurs at Precise Location and Is Inhibited by IciA Like Protein”.

Biological target: T1, IciA (rIciA, LysR family) (Mycobacterium tuberculosis H37Rv, UniProt P9WMF5 1-303)
T1 sequence: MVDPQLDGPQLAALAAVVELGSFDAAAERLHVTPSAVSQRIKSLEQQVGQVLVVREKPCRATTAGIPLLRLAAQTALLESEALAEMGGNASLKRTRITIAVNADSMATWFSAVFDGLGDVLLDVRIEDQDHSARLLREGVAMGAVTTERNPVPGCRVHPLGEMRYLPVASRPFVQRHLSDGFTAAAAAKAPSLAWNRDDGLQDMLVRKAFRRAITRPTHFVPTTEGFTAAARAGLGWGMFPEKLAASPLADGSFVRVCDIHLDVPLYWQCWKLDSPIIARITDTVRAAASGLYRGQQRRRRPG
Assay: EMSA; 250-750 ng IciA, 1 ug poly(dI/dC)
Conditions: protein: recombinant; tags: His tag (pET28a NdeI/HindIII); chain copies: 4; label: 5' 32P; blunt

B1: A+T rich oriC oligonucleotide (Ori F1/Ori R1) (dsDNA)
DNA 1: TTCTTCCGACAACGTTCTTAAAAAAACTTCTCTA
DNA 2: TAGAGAAGTTTTTTTAAGAACGTTGTCGGAAGAA
**Q.** Does B1 bind?
**A.** binds
